Target: TrkA (rat (endogenous in PC12 rat …, UniProt P35739 33-799))
Test: cell-based or functional assay

TrkA (rat, sequence (P35739 33-799): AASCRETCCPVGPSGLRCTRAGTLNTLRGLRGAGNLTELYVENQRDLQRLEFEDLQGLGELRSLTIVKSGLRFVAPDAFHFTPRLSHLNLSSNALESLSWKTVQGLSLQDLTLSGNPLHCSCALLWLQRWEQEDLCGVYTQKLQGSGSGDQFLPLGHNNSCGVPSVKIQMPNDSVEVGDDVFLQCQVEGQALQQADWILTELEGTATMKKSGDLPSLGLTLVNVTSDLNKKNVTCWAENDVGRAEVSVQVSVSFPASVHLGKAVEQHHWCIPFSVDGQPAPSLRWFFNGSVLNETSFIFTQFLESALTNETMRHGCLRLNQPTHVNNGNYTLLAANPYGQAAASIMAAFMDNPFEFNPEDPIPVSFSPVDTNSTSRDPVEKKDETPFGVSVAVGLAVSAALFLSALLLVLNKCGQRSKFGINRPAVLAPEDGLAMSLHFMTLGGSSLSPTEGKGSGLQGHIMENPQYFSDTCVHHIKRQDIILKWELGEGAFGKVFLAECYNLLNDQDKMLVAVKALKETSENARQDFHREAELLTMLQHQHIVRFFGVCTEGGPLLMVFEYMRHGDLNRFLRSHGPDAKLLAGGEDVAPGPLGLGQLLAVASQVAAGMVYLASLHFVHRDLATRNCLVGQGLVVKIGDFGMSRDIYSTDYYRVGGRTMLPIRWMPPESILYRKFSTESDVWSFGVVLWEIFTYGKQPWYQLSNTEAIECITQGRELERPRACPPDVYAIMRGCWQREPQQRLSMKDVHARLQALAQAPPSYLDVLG

B1: SPKR4NL1-2 (other)
chain: MGHHHHHHHHHHSSGHIEGRHMSPKRSPKRSPKRSPKRGGTYLSEDELKAAEAAFKRHNPTGSCSVSVWVGDKTTATDIKGKEVMVLGEVNINNSVFKQYFFETKCRDPNPVDSG
modifications: disulfide bridge intended between the added Cys and the Cys corresponding to C58 of NGF
Q: B1 was tested. Which “increase in gene expression in PC12 cells, SPKR4NL1-2 group against (SPKR)4 group (luciferase)” value did it give?
A: Its value is 1400 fold.

— patent US20050048606A1 (AGENCY FOR SCIENCE TECHNOLOGY AND RESEARCH, published 2005)
